Measured values from patent publication US10487307B2, “Culture method for pluripotent stem cells” (FUJIFILM CORPORATION, priority 2013, dated 2019).

B1: RCP-1: recombinant polypeptide for culture, SEQ ID NO: 15; human vitronectin positions 1-55 and 269-459 with N-terminal methionine (protein)
chain: MDQESCKGRCTEGFNVDKKCQCDELCSYYQSCCTDYTAECKPQVTRGDVFTMPEDEPSQEECEGSSLSAVFEHFAMMQRDSWEDIFELLFWGRTSAGTRQPQFISRDWHGVPGQVDAAMAGRIYISGMAPRPSLAKKQRFRHRNRKGYRSQRGHSRGRNQNSRRPSRATWLSLFSSEESNLGANNYDDYRMDWLVPATCEPIQSVFFFSGDKYYRVNLRTRRVDTVDPPYPRSIAQYWLGCPAPGHL
modifications: Vitronectin-derived Recombinant Protein (RCP-1)
B2: RCP-11: recombinant polypeptide for culture, SEQ ID NO: 25; vitronectin positions 1-55, 269-277, 295-341, 342-373, C274S (protein)
chain: MDQESCKGRCTEGFNVDKKCQCDELCSYYQSCCTDYTAECKPQVTRGDVFTMPEDESQEESEGSEDIFELLFWGRTSAGTRQPQFISRDWHGVPGQVDAAMAGRIYISGMAPRPSLAKKQRFRHRNRKGYRSQRGHSRGRNQN
modifications: Vitronectin-derived Recombinant Protein (RCP-11)
notes: vitronectin positions 1-55, 269-277, 295-341, 342-373, C274S
B3: RCP-5: recombinant polypeptide for culture, SEQ ID NO: 19; vitronectin positions 1-55, 302-341, 342-373 (protein)
chain: MDQESCKGRCTEGFNVDKKCQCDELCSYYQSCCTDYTAECKPQVTRGDVFTMPEDEFWGRTSAGTRQPQFISRDWHGVPGQVDAAMAGRIYISGMAPRPSLAKKQRFRHRNRKGYRSQRGHSRGRNQN
modifications: Vitronectin-derived Recombinant Protein (RCP-5)

How the values were obtained:
[1] = Aggregation after dialysis of purified polypeptide solution; type: physicochemical; set-up: key: G: The formation of an aggregate was not observed.; A: The formation of particles having a particle size of about 100 nm was observed.; B: The formation of an aggregation of particles having a particle size of equal to or greater than 1 mm was visually observed
Experimental: For RCP-1 to RCP-11, each of the purified polypeptide solutions was dialyzed using Slide-A-Lizer (3.5 K MWCO.). Basically, by using a dialysis buffer (PBS, 1.5 M NaCl, 0.5 M L-arginine, 1 mM EDTA, pH 7.4) as an outer dialysate, urea was removed by stepwise dialysis. The concentration of the end-product of dialysis was calculated from the absorbence at 280 nm by using NanoDrop (Thermo Fisher Scientific Inc.).
Whether or not aggregation was occurred was evaluated based on the scale of A, and B as shown below.
G: The formation of an aggregate was not observed.
A: The formation of particles having a particle size of about 100 nm was observed.
B: The formation of an aggregation of particles having a particle size of equal to or greater than 1 mm was visually observed.

human iPS cells ("Tic") = assay: Cell adhesiveness evaluation 1 (ALP activity of adhesive iPS cells); type: cell-based; settings: 30,000 cells/well, 24 hours, natural vitronectin (sample 15) = 100%, n=3
In short: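 Peptides and controls were adsorbed onto wells for 2 h at 37 °C. Single-cell human iPS cells in TeSR2 with 10 μM Y-27362 were seeded at 30,000 cells/well. After 24 h, non-adherent cells were washed off and adherent cells fixed; cell number came from ALP activity via a calibration curve. Adhesion is expressed relative to natural vitronectin (100%), n=3.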

iPS cells = assay: Growth evaluation, number of cells after 3 days; type: cell-based, human; settings: 5,000 cells/well
Experimental: By adding RCP-1 to RCP-11 and Human Recombinant Laminin-511 as control at the concentration shown in Table 9, samples 1 to 12 were prepared. The samples were seeded into a 96-well plate, onto which each of the polypeptides was adsorbed in the same manner as in <Cell adhesiveness evaluation 1>, at a ratio of 5,000 cells/well and cultured for 3 days in a CO2 incubator at 37° C. The number of cells after 3 days was calculated in the same manner as in <Cell adhesiveness evaluation 1>. In Table 9, the number of cells after 3 days is expressed as a ratio calculated by regarding the number of cells obtained by using the sample 1 as being 100%.

Molecule	Aggregation [1]	Cell adhesion rate (%) (human iPS cells ("Tic"); added amount 200 pmol/cm^2)	Number of cells after 3 days (%) (iPS cells; added amount 80 μg/cm^2, sample 1 = 100%)	Cell adhesion rate (%) (human iPS cells ("Tic"); added amount 5 μg/cm^2)	Number of cells after 3 days (%) (iPS cells; added amount 5 μg/cm^2, sample 1 (RCP-1) = 100%)	Cell adhesion rate (%) (human iPS cells ("Tic"); added amount 10 μg/cm^2)	Number of cells after 3 days (%) (iPS cells; added amount 10 μg/cm^2, sample 1 (RCP-1) = 100%)
B1	A	109.3 ± 5.3%	100.0%				
B2	A			95.9 ± 4.6%	153.5%		
B3	G					94.1 ± 6.5%	121.2%
